Assay results: US20040105855A1 (Bristol-Myers Squibb, published 2004)

How the values were obtained:
[1] = molecular target: T1, hu4-1BBIg fusion protein (extracellular domain of H4-1BB fused to the constant domains of a human IgG1 … (human, UniProt Q07011 24-186; P01857 99-330 = IgG part); test: SPR BIAcore 3000, antibody 10-100 nM over low-density immobilized H4-1BB (557 RU), global fit, Bivalent Analyte Model (KA1)
T1 construct: extracellular domain;domain: constant domains of a human IgG1 antibody; also called immobilized H4-1BB; Human 4-1BB receptor; not shown: thrombin cleavage site between the 4-1BB and Ig portions
Procedure: (§1) These studies were carried out on a BIAcore 3000 instrument (BIAcore Inc., Piscataway, N.J.). Dilutions of the antibodies were injected under identical conditions over sensorchip surfaces of immobilized H4-1BB.
(§2) Human 4-1BB receptor was immobilized covalently to a low density on a carboxy-methylated dextran surface of a BIAcore sensorchip (BIAcore Inc., Piscataway, N.J.). Through primary amino groups the fusion protein, injected at 2 μg/mL in 10 mM acetate buffer, pH 5.0, bind to an EDC/NHS-activated surface. […] After regenerating with 10 mM glycine, pH 2.0 the surface was ready for binding studies. Antibodies 39E3 and hu39E3.G4 were diluted to concentrations between 10 nM and 100 nM using HBS-EP buffer. All mAb dilutions were injected over two flow cells (FC) at a flow rate of 25 μl/minute. FC1 served as a negative control, FC2 had low density of human 4-1BB (557 RU). Bound anti-human 4-1BB mAbs were removed by regeneration with 10 mM Glycine pH 1.75.
(§3) Kinetic parameters were calculated with BIAevaluation program (version 3.1) (BIAcore Inc., Piscataway, N.J.). A global curve fit analysis was performed using a Bivalent Analyte Model (BIAcore Inc. Piscataway, N.J.). […] The binding affinities for the parental mAb, 39E3, and the humanized anti-H4-1BB mAb are shown below in Table 3.

[2] = molecular target: T1, hu4-1BBIg fusion protein (extracellular …); test: SPR BIAcore 3000, antibody 10-100 nM over low-density immobilized H4-1BB (557 RU), global fit, Bivalent Analyte Model (KD1)
Procedure: as §1, §2, §3

[3] = molecular target: T1, hu4-1BBIg fusion protein (extracellular …); test: SPR BIAcore 3000, antibody 10-100 nM over low-density immobilized H4-1BB (557 RU), global fit, Bivalent Analyte Model (Ka1)
Procedure: as §1, §2, §3

[4] = molecular target: T1, hu4-1BBIg fusion protein (extracellular …); test: SPR BIAcore 3000, antibody 10-100 nM over low-density immobilized H4-1BB (557 RU), global fit, Bivalent Analyte Model (Kd1)
Procedure: as §1, §2, §3

T1 sequence (Q07011 other isoform, or with tags, fused parts or gaps): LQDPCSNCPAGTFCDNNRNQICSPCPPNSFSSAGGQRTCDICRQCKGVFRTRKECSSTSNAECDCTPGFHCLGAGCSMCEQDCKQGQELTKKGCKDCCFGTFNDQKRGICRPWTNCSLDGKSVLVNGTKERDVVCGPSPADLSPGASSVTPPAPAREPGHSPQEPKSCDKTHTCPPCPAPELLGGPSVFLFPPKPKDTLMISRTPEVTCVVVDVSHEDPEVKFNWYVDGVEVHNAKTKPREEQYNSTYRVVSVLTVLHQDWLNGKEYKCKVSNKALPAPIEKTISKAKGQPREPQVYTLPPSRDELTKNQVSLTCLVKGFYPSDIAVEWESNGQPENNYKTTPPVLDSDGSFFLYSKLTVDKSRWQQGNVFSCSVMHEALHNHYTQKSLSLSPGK

Ka [1] [M⁻¹]	Kd [2] [nM]	kon [3] [M⁻¹ s⁻¹]	koff [4] [s⁻¹]	Binder
1.48e+08	6.7	7070	4.77e-05	mAb 39E3 (parental rat anti-human 4-1BB monoclonal antibody) (antibody, V domains shown, constant regions are not; also called parental antibody; parental mAb) VH: EVQLVESGGGLVKPGASLKLSCVASGFTFSDYWMSWVRQTPGKTMEWIGDIKNDGSYTNYAPSLTNRFTISRDNARSTLYLQMNNVRSEDTATYYCTRELTGT VL: DIIMTQSPFSLAVSEGEMVTMNCKSSQSLLSSGNQKNYLAWYQQKPGQPPELLIYYASTRQSGVPDRFIGSGSGTDFLTLTISDVQAEDLADYYCLQYDRYPFT
1.87e+08	5.3	4740	2.53e-05	hu39E3.G4 (humanized 39E3, IgG4) (antibody, V domains shown, Humanized IgG4 with a hinge mutation (after Angal et al.), made in CHO DG-44; also called humanized 39E3.G4 antibody; humanized anti-H4-1BB mAb) VH: EVQLVESGGGLVQPGGSLRLSCAASGFTFSDYWMSWVRQAPGKGLEWVADIKNDGSYTNYAPSLTNRFTISRDNAKNSLYLQMNSLRAEDTAVYYCARELTGTWGQGTMVTVSS VL: DIVMTQSPDSLAVSLGERATINCKSSQSLLSSGNQKNYLAWYQQKPGQPPKLLIYYASTRQSGVPDRFSGSGSGTDFTLTISSLQAEDVAVYYCLQYDRYPFTFGQGTKLEIKR
